The results in this text go back to patent publication US20260207767A1 (ANAVEON, published 2026).

Substitutions are numbered along the chain they refer to. In names and notes the source's numbering stands. Where two headings read alike, the source gives them in different places.

The target of assay [1] is T1, cynomolgus PD-1 expressed on cells (cynomolgus monkey, UniProt B0LAJ3 25-288).
T1 construct: also called CHO-S Cyno-PD-1; 293:cyPD1
The assay is described as follows: flow cytometry, HEK293 cyPD1.

Assay [2] concerns the target T2, human PD-1 expressed on cells (human, UniProt Q15116 25-288).
T2 construct: whole, on cells; cell line named under assay; also called CHO-S hPD-1; Raji PD-1
The assay is described as follows: flow cytometry, HEK293 huPD1.

In assay [3] the target is T3, cynoPD-1 His (AcroBiosystems PD1-C5223) (cynomolgus monkey, UniProt B0LAJ3 25-170).
T3 construct: also called cPD-1; cynomolgus PD-1 His-tagged
T3 sequence (B0LAJ3 entry or part of it limits assumed): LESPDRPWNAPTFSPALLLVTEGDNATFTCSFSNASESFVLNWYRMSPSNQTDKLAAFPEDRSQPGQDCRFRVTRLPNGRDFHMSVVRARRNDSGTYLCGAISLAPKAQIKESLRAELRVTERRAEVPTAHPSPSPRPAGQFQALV
Description: BLI (legend: SPR), Ab on sensor.

The next assay concerns the target T4, hPD-1 His-tagged (human, UniProt Q15116 25-167).
T4 construct: also called recombinant hPD-1 (AcroBio)
Description: BLI (legend: SPR), Ab on sensor.

In assay [4] the target is T5, recombinant hPD-1 (construct not stated) (human, UniProt Q15116 25-167, limits assumed).
T5 construct: also called huPD-1; Human PD1
T5 sequence (Q15116 25-167 limits assumed): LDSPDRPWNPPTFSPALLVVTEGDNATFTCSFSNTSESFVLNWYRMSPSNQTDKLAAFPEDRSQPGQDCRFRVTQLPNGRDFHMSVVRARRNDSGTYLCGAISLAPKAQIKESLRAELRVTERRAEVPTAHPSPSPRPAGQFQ
Description: ELISA.

Assay [5] deals with T6, recombinant cynoPD-1 (construct not stated) (cynomolgus monkey, UniProt B0LAJ3 25-170).
T6 construct: not shown: probably His as elsewhere
The assay is described as follows: ELISA.

Assay [6] deals with T2, human PD-1 expressed on cells. The assay is described as follows: flow cytometry, CHO-S hPD-1. The procedure: CHO-S hPD-1 cells were incubated with a 5-fold serial dilution of the indicated humanized antibodies. Antibody binding was detected with goat anti-human IgG-PE. MFI were plotted over the antibody concentration to obtain EC50 values.
Assay [7] shares this target. The assay is described as follows: flow cytometry, CHO-S hPD-1. The source holds these as a separate data set.
For assay [8], the target named is T7, hPD-1 Avi-Tag Biotin (AcroBiosystems PD1-H82E4) (human, UniProt Q15116 25-167, biotin on Avi-Tag).
T7 construct: bought; also called human PD-1
T7 sequence (Q15116 25-167 limits assumed): as above
The assay is described as follows: SPR, Ab captured, PD-1 analyte. The procedure: (§1) Anti-human Fc IgG (Jackson) was immobilized on amine reactive CM5 chips (GE Healthcare) using 1×HBS-EP+ running buffer (GE Healthcare). The test antibodies were captured at flow rate 10 μl/min with 30 s contact time. […] Regeneration was carried out with 10 mM Glycine-HCl, pH 1.5 at flow rate 10 μL/min. This protocol is to be used, unless stated otherwise, in determination of Kd wherever used to define the KD of antibodies specified herein, with adaptions where necessary with regard to the nature of the interaction partners.

For assay [9], the target named is T3, cynoPD-1 His (AcroBiosystems PD1-C5223). The assay is described as follows: SPR, Ab captured, PD-1 analyte. The procedure:
as §1

The target of assay [10] is T7, hPD-1 Avi-Tag Biotin (AcroBiosystems …). The assay is described as follows: SPR, Ab captured, PD-1 analyte. The procedure: Anti-human Fc IgG (Jackson) was immobilized on amine reactive CM5 chips (GE Healthcare) using 1×HBS-EP+ running buffer (GE Healthcare). The test antibodies were captured at flow rate 10 μl/min with 30 s contact time. […] Regeneration was carried out with 10 mM Glycine-HCl, pH 1.5 at flow rate 10 μL/min. This protocol is to be used, unless stated otherwise, in determination of Kd wherever used to define the KD of antibodies specified herein, with adaptions where necessary with regard to the nature of the interaction partners. […]
This is another data set of the same source.

The target of assay [11] is T1, cynomolgus PD-1 expressed on cells. Description: flow cytometry, CHO-S Cyno-PD-1.
Assay [12] has as its target T3, cynoPD-1 His (AcroBiosystems PD1-C5223). Description: SPR; second ka column, taken as cynoPD-1. The procedure:
as §1
Every position in the antibody VH and VL-CDRs was mutated by PCR using a mutagenic primer containing a degenerate codon NNS at a specific CDR position, introducing a combination of all 20 amino acids. The library of single mutants was screened by scFv capture ELISA using a redundancy factor of 4 (on 96-well plate er position). Clones displaying ≥2× ELISA signal compared to the wild-type scFv were sequenced, and clones with unique sequences were re-grown, re-screened by capture ELISA and ranked by dose-dependent ELISA on human and cyno antigens, and by FACS using human antigen expressing cells. Affinity improving mutations were used to design a combinatorial library using the Kunkel method. The library was screened by scFv capture ELISA using the redundancy factor of 4 (4× number of combinations). Clones displaying ≥2× ELISA signal compared to the wild-type scFv were sequenced, and clones with unique sequences were re-grown, re-screened by capture ELISA and ranked by dose-dependent ELISA on human and cyno antigens, and by FACS using human antigen expressing cells.

T2 sequence (Q15116 25-288): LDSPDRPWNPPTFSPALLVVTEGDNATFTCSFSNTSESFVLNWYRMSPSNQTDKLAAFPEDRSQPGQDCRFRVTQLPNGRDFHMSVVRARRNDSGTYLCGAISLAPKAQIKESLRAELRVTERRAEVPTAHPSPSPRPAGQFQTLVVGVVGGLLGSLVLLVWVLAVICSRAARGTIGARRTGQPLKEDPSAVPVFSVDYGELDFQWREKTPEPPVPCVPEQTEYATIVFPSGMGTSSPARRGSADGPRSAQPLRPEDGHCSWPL
T1 sequence (B0LAJ3 entry or part of it limits assumed): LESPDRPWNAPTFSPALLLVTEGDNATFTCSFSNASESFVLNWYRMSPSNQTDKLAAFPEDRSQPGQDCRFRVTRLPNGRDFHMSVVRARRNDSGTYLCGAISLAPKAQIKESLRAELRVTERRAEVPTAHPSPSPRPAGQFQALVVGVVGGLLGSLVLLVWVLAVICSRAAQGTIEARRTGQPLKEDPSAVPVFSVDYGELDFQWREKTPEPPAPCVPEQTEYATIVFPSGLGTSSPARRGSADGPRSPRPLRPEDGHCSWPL
T4 sequence (Q15116 25-167 limits assumed): as the sequence (Q15116 25-167 limits assumed) above

B1: 20H02 (antibody, V domains shown)
VH: EVLLVESGGGLVQPGGSLRLSCAASGFTFSSYSMNWVRQAPGKGLEWVSFISSSSPTLYYADSVKGRFTISRDNAKNSLYLQMNSLRDEDTAVYYCARQGLTPFDYWGQGTLVTVSS
VL: EIVMTQSPATLSVFPGERATLSCRASQSVSSYLAWYQQKPGQAPRLLIYGASTRATGIPARVSGSGSGTEFILTISSLQSEDFAVYYCQQYNNWPYTFGQGTKLEIK
notes: used with CH1,2,3 and corresponding CL
As to B1, the EC50 in assay [1] was 0.231 nM; in assay [2], 0.503 nM. Also, the equilibrium dissociation constant (Kd) in assay [3] stood at 6.39 nM; in the assay with hPD-1 His-tagged, 2.43 nM. In addition, the results for the koff (in assay [3]; with hPD-1 His-tagged) were 0.000463 s⁻¹ and 0.000221 s⁻¹, respectively. Besides, the results for the on-rate (kon) (in assay [3]; with hPD-1 His-tagged) were 72500 M⁻¹ s⁻¹ and 90900 M⁻¹ s⁻¹, respectively.

B2: 40B20 (antibody, V domains shown)
VH: EVQLVESGGGLVQPGGSLRLSCAASGFTFSSYSMNWVRQAPGKGLQWVSYITSSSNTMYYADSVKGRFTISRDNAKNSLYLQMNSLRDEDTAVYYCASIVGAPFDYWGQGTLVTVSS
VL: B1 VL with F14S, Y32S, V62F, I72T, V85A, Y96F, Q100P, L104V, E105D
notes: as for B1
In assay [1], B2 displayed an EC50 of 0.0958 nM. For the same molecule, the EC50 in assay [2] was 0.162 nM. In assay [3], this molecule had an equilibrium dissociation constant (Kd) of 7.51 nM, a koff of 0.000505 s⁻¹ and an on-rate constant (kon) of 67300 M⁻¹ s⁻¹. In the assay with hPD-1 His-tagged, the equilibrium dissociation constant (Kd) came to 9.61 nM, the off-rate constant (koff) was 0.000773 s⁻¹ and the kon came to 80500 M⁻¹ s⁻¹.

B3: z2-XVT458 (antibody, IgG1, V domains shown)
VH: QVQLVQSGAEVKKPGASVKVSCKASGYTFTNFYIHWVRQAPGQGLEWMGSIYPNYGDTAYNQKFKDRVTMTVDTSTSTAYMELRSLRSDDTAVYYCARGYSYAMDYWGQGTTVTVSS
VL: DIQMTQSPSSVSASVGDRVTITCSASQGISGDLNWYQQKPGKAPKLLIYHTSSLHSGVPSRFSGSGSGTDFTLTISSLQPEDFATYYCQYYSKDLLTFGGGTKLEIK
notes: full hIgG1; also called XVT458-z2; GH + T071V
As for B3, the concentration for a half-maximal effect (EC50) came out at 0.71 nM in assay [4], 0.4 nM in assay [5], 4.15 nM in assay [6] and 5.86 nM in [7]. Moreover, the results for the “Max OD” value in assay [4] and in [5] were 2.91 OD and 3.32 OD, respectively. For the same molecule, in assay [6], the “Top MFI” value was 45500 MFI. In addition, the “Max MFI” value worked out at 40700 MFI in assay [7] and 109 MFI in assay [11]. Moreover, the equilibrium dissociation constant (Kd) was 14 nM in assay [8], 54.2 nM in [9] and 12.5 nM in assay [10]. Further, the dissociation rate constant (koff) is 0.00127 s⁻¹ in assay [8], 0.0031 s⁻¹ in assay [9] and 0.00124 s⁻¹ in assay [10]. For the same molecule, the kon in assay [8] was 90700 M⁻¹ s⁻¹; in assay [9], 57200 M⁻¹ s⁻¹; in [10] it was 99200 M⁻¹ s⁻¹; in [12], 73000 M⁻¹ s⁻¹.

B4: XVT458-z2-m4 (antibody, V domains shown)
VH: B3 VH with S50R, D57I
VL: B3 VL with L54R, Y90G
notes: IgG format; also called z2_XVT458m4
For the molecule B4, the EC50 was found to be 0.079 nM in assay [4], 0.098 nM in assay [5] and 0.96 nM in assay [7]. The “Max OD” value in assay [4] was 3.3 OD; in assay [5], 3.54 OD. Moreover, the “Max MFI” value in assay [7] was found to be 43400 MFI; in [11], 258 MFI. This molecule yielded an equilibrium dissociation constant (Kd) in [10] of 1.22 nM. In assay [10], this molecule had an off-rate constant (koff) of 0.000173 s⁻¹. Further, the values for the kon in assay [10] and in assay [12] were 142000 M⁻¹ s⁻¹ and 134000 M⁻¹ s⁻¹, respectively.

B5: XVT458-z2-m6 (antibody, V domains shown)
VH: B3 VH with D57I
VL: B3 VL with S53Q, G57D, Y90G
notes: IgG format; also called z2_XVT458m6
Turning to B5, in assay [4], the half-maximal effective concentration (EC50) was found to be 0.064 nM and the “Max OD” value was determined as 3.49 OD. For the same molecule, in assay [5], the EC50 is 0.071 nM and the “Max OD” value was 3.69 OD. Moreover, in assay [7], a half-maximal effect (EC50) was put at 1.56 nM and the “Max MFI” value came to 39500 MFI. In assay [10], this molecule showed a Kd of 0.439 nM, a koff of 0.000101 s⁻¹ and a kon of 231000 M⁻¹ s⁻¹. For the same molecule, the “Max MFI” value in assay [11] worked out at 59 MFI. In addition, in assay [12], the kon was found to be 213000 M⁻¹ s⁻¹.

B6: XVT458-z2-m5 (antibody, V domains shown)
VH: B3 VH with S50R, D57I
VL: B3 VL with S30Y, L54R, Y90A
notes: IgG format; also called z2_XVT458m5
In the case of B6, the EC50 stood at 0.051 nM in assay [4], 0.056 nM in [5] and 0.84 nM in [7]. In addition, the “Max OD” value in [4] amounted to 3.42 OD; in assay [5], 3.58 OD. Moreover, the “Max MFI” value in [7] came to 42400 MFI; in assay [11], 335 MFI. Besides, the dissociation constant (Kd) in assay [10] turned out to be 0.787 nM. For the same molecule, in [10], the koff is 9.77e-05 s⁻¹. Besides, the on-rate (kon) amounted to 124000 M⁻¹ s⁻¹ in assay [10] and 111000 M⁻¹ s⁻¹ in [12].

B7: 39F23 (antibody, V domains shown)
VH: QVQLVESGGGVGQPGRSLRLSCAASGFTFSNYGMHWVRQAPGKGLEWVAVIWYDGSKKYYADSVKGRFTISRDNSKNTLYLQMNSLRVEDTAVYYCVGNSGHWGQGTLVTVSS
VL: DIVMTQTPLSLPVTPGEPASISCRSSQSLLDSDDGNTYLDWYLQKPGQSPQLLIYTLSYRASGVPDRFSGSGSGTDFTLKISRVEAEDVGVYYCMQCIEFPHTFGGGTKVEIK
notes: as for B1
B7 came in with a 50% effective concentration (EC50) in assay [1] of 0.0289 nM. This molecule also gave a concentration giving a half-maximal response (EC50) in assay [2] of 0.0189 nM. In [3], this molecule registered a Kd of 1.3 nM, a dissociation rate constant (koff) of 0.000294 s⁻¹ and a kon of 227000 M⁻¹ s⁻¹. For the same molecule, in the assay with hPD-1 His-tagged, binding was characterised by a dissociation constant (Kd) of 1.03 nM, the koff stood at 0.000253 s⁻¹ and the on-rate (kon) is 244000 M⁻¹ s⁻¹.

B8: 22F13 (antibody, V domains shown)
VH: EVQLLESGGGLVQPGGSLRLSCAASGFTFSISAMTWVRQAPGKGLEWVSTISGSGGSTYYSDSVKGRFTISRDNSKNTLYLQINSLRADDTAVYYCAKEVYGDYWGQGTLVTVSS
VL: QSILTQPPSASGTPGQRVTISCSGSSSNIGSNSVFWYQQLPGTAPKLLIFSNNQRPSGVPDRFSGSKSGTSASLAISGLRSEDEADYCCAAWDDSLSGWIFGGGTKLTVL
notes: as for B1
As for B8, it took 0.107 nM to reach a half-maximal effect in [1] (EC50). This molecule came in with an EC50 in assay [2] of 0.2 nM. In assay [3], this molecule had a dissociation constant (Kd) of 8.45 nM, an off-rate (koff) of 0.000838 s⁻¹ and an association rate constant (kon) of 99200 M⁻¹ s⁻¹. In the assay with hPD-1 His-tagged, this molecule yielded a Kd of 1.41 nM, an off-rate constant (koff) of 0.000132 s⁻¹ and a kon of 94000 M⁻¹ s⁻¹.

B9: 25I20 (antibody, V domains shown)
VH: EVQLLESGGNLVQPGGSLRLSCAASGFTFSTYAMSWVRQAPGKGLEWVSTISGTGYSTYFADSVKGRFTISRDNSKNTLFLQMNSLRAEDTAVYYCAKEVYGDYWGQGTLVTVSS
VL: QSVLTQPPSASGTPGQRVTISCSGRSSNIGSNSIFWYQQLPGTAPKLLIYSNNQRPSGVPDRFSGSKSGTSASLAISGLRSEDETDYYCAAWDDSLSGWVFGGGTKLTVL
notes: used with CH1,2,3 and corresponding CL; also called 25120
B9 had a concentration for a half-maximal effect (EC50) in assay [1] of 0.31 nM. In assay [2], this molecule showed a 50% effective concentration (EC50) of 0.179 nM. Moreover, in assay [3], the Kd came to 8.38 nM, the koff was found to be 0.000783 s⁻¹ and the kon came to 93400 M⁻¹ s⁻¹. In the assay with hPD-1 His-tagged, this molecule yielded a Kd of 1.15 nM, a koff of 0.000101 s⁻¹ and a kon of 87500 M⁻¹ s⁻¹.
